From paper PMC7072198 (2020)

Target: EGFR extracellular domain (ECD), wild type (human, UniProt P00533 25-645)
Assay: SPR

Binder | Kd
rLZ-8^(Mut 3) (K16A/S18A/K41A/D45A) (natural protein) SDTALIFRLAWDVKALAFDYTPNWGRGNPNNFIDTVTFPAVLTAKAYTYRVAVSGRNLGVKPSYAVESDGSQKVNFLEYNSGYGIADTNTIQVFVVDPDTNNDFIIAQWN | 9.22 nM
recombinant Lingzhi-8 (rLZ-8), wild type (natural protein) MSDTALIFRLAWDVKKLSFDYTPNWGRGNPNNFIDTVTFPKVLTDKAYTYRVAVSGRNLGVKPSYAVESDGSQKVNFLEYNSGYGIADTNTIQVFVVDPDTNNDFIIAQWN | 4.75 nM
